T1: PTK7 (His tag) (UniProt Q13308 31-704)
T1 sequence: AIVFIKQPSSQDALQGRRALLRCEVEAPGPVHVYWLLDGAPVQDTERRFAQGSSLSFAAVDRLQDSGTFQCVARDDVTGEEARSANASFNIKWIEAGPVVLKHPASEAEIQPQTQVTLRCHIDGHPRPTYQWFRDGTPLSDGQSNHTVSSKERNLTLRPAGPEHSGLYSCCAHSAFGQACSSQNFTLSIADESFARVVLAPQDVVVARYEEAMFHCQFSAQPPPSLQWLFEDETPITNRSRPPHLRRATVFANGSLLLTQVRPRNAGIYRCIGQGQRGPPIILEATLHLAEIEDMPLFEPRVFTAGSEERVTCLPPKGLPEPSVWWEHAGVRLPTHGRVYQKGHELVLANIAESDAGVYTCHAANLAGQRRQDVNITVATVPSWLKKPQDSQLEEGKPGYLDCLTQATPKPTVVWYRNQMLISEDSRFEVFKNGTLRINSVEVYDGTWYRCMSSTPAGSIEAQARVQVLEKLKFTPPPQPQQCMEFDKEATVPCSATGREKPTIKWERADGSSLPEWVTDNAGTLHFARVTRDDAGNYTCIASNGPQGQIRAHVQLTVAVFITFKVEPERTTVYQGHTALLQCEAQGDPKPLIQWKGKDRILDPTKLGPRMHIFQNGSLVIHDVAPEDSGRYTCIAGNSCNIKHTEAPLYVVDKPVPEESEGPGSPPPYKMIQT


Molecular target: T1, PTK7 (His tag)
Assay: SPR

Binder	binding result
ATCTAACTTCTGAGCCGCCGGGAAAATACTGTACGGTTAGA (structured_DNA) [G9T·C13A]	no binding
ATCTAACTACTGTGCCGCCGGGAAAATACTGTACGGTTAGA (structured_DNA) [G9A·C13T]	no binding
ATCTAACTCCTGGGCCGCCGGGAAAATACTGTACGGTTAGA (structured_DNA) [G9C·C13G]	no binding
ATCTAACTGTTACGCCGCCGGGAAAATACTGTACGGTTAGA (structured_DNA) [C10T·G12A]	no binding
ATCTAACTGATTCGCCGCCGGGAAAATACTGTACGGTTAGA (structured_DNA) [C10A·G12T]	no binding
ATCTAACTGGTCCGCCGCCGGGAAAATACTGTACGGTTAGA (structured_DNA) [C10G·G12C]	no binding
